Laboratory results from patent US12187772 (Regeneron, dated 2025).
Like-named read-outs stand apart in the source and are kept apart here.

T1: IL10 receptor (IL10 receptor subunit alpha IL10Ra and beta subunit IL10Rb) on Ramos/STAT3-Luc and … (UniProt Q13651 22-578; Q08334 20-325, limits assumed)
T1 sequence (looked up) 1: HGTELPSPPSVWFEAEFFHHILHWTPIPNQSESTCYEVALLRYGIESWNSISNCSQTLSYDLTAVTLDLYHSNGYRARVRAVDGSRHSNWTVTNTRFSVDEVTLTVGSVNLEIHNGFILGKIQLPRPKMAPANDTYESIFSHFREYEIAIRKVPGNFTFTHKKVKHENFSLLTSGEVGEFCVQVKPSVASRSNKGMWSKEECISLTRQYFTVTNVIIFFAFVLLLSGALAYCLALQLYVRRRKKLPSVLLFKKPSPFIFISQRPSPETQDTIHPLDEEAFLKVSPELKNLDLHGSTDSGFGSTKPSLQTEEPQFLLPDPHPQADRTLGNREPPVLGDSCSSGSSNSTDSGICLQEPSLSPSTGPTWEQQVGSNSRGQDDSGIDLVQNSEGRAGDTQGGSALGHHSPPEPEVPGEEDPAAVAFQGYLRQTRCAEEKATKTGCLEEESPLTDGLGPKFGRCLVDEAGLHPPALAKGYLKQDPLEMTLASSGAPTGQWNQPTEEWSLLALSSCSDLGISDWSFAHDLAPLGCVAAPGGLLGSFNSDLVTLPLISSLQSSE
T1 sequence (looked up) 2: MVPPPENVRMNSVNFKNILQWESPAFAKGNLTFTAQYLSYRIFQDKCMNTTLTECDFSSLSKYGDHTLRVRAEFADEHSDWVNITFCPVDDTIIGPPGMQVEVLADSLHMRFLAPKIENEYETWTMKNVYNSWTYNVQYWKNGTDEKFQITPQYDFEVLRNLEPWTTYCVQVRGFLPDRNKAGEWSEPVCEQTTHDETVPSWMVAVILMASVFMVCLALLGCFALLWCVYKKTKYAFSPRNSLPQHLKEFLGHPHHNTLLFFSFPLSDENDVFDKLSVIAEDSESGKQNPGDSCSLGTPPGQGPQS


What was measured:
Test in all cases: cell-based or functional assay
[1] = biological target: T1, IL10 receptor (IL10 receptor subunit …)
[2] = biological target: T1, IL10 receptor (IL10 receptor subunit …); remark: listed apart in the source
[3] = biological target: T1, IL10 receptor (IL10 receptor subunit …); remark: listed apart in the source

Row | EC50 of luciferase activity, Ramos/Stat3-Luc reporter cells [1] [nM] | EC50 of luciferase activity, TF-1/Stat3-Luc reporter cells [1] [nM] | Fold Induction of luciferase activity, Ramos/Stat3-Luc reporter cells [1] [fold] | Fold Induction of luciferase activity, TF-1/Stat3-Luc reporter cells [1] [fold] | EC50 [M] of luciferase activity, Ramos/STAT3-Luc reporter cells [2] [M] | EC50 [M] of luciferase activity, TF-1/STAT3-Luc reporter cells [2] [M] | Fold Induction of luciferase activity, Ramos/Stat3-Luc reporter cells [2] [fold] | Fold Induction of luciferase activity, TF-1/Stat3-Luc reporter cells [2] [fold] | Fold Induction of luciferase activity, Ramos/Stat3-Luc reporter cells [3] [fold] | Fold Induction of luciferase activity, TF-1/Stat3-Luc reporter cells [3] [fold] | Binder | further results
1 | 0.268 | 0.484 | 3.2 | 2.34 |  |  |  |  |  |  | IL10M8 (hIL10-Fc; Fc is IgG4s) (Fc fusion) SPGQGTQSENSCTHFPGNLPNMLRDLRDAFSRVKTFFQMKDQLDNLLLKESLLEDFKGYLGCQALSEMIQFYLEEVMPQAENQDPDIKAHVNSLGENLKTLRLRLRRCHRFLPCENKSKAVEQVKNAFNKLQEKGIYKAMSEFDIFINYIEAYMTMKIRNESKYGPPCPPCPAPPVAGPSVFLFPPKPKDTLMISRTPEVTCVVVDVSQEDPEVQFNWYVDGVEVHNAKTKPREEQFNSTYRVVSVLTVLHQDWLNGKEYKCKVSNKGLPSSIEKTISKAKGQPREPQVYTLPPSQEEMTKNQVSLTCLVKGFYPSDIAVEWESNGQPENNYKTTPPVLDSDGSFFLYSRLTVDKSRWQEGNVFSCSVMHEALHNHYTQKSLSLSLGK | 
2 |  |  |  |  | 2.19e-10 | 4.51e-10 | 3.2 | 3.4 |  |  | IL10M3 (hIL10-1XG4S-Fc; Fc is murine IgG1) (Fc fusion) SPGQGTQSENSCTHFPGNLPNMLRDLRDAFSRVKTFFQMKDQLDNLLLKESLLEDFKGYLGCQALSEMIQFYLEEVMPQAENQDPDIKAHVNSLGENLKTLRLRLRRCHRFLPCENKSKAVEQVKNAFNKLQEKGIYKAMSEFDIFINYIEAYMTMKIRNGGGGSVPRDCGCKPCICTVPEVSSVFIFPPKPKDVLTITLTPKVTCVVVDISKDDPEVQFSWFVDDVEVHTAQTQPREEQFNSTFRSVSELPIMHQDWLNGKEFKCRVNSAAFPAPIEKTISKTKGRPKAPQVYTIPPPKEQMAKDKVSLTCMITDFFPEDITVEWQWNGQPAENYKNTQPIMDTDGSYFVYSKLNVQKSNWEAGNTFTCSVLHEGLHNHHTEKSLSHSPGK | 
3 |  |  |  |  | 2.13e-10 | 5.15e-10 | 3.6 | 4.1 |  |  | IL10M2 (hIL10-3XG4S-Fc; Fc is IgG4s) (Fc fusion) SPGQGTQSENSCTHFPGNLPNMLRDLRDAFSRVKTFFQMKDQLDNLLLKESLLEDFKGYLGCQALSEMIQFYLEEVMPQAENQDPDIKAHVNSLGENLKTLRLRLRRCHRFLPCENKSKAVEQVKNAFNKLQEKGIYKAMSEFDIFINYIEAYMTMKIRNGGGGSGGGGSGGGGSESKYGPPCPPCPAPPVAGPSVFLFPPKPKDTLMISRTPEVTCVVVDVSQEDPEVQFNWYVDGVEVHNAKTKPREEQFNSTYRVVSVLTVLHQDWLNGKEYKCKVSNKGLPSSIEKTISKAKGQPREPQVYTLPPSQEEMTKNQVSLTCLVKGFYPSDIAVEWESNGQPENNYKTTPPVLDSDGSFFLYSRLTVDKSRWQEGNVFSCSVMHEALHNHYTQKSLSLSLGK | EC50 of luciferase activity, Ramos/Stat3-Luc reporter cells (IL10M2 L1) [3]: 0.254 nM; EC50 of luciferase activity, Ramos/Stat3-Luc reporter cells (IL10M2 L2) [3]: 0.192 nM; EC50 of luciferase activity, TF-1/Stat3-Luc reporter cells (IL10M2 L1) [3]: 0.507 nM; EC50 of luciferase activity, TF-1/Stat3-Luc reporter cells (IL10M2 L2) [3]: 0.45 nM; Fold Induction of luciferase activity, Ramos/Stat3-Luc reporter cells (IL10M2 L1) [3]: 3.42 fold; Fold Induction of luciferase activity, Ramos/Stat3-Luc reporter cells (IL10M2 L2) [3]: 3.06 fold; Fold Induction of luciferase activity, TF-1/Stat3-Luc reporter cells (IL10M2 L1) [3]: 2.85 fold; Fold Induction of luciferase activity, TF-1/Stat3-Luc reporter cells (IL10M2 L2) [3]: 2.68 fold
4 |  |  |  |  |  |  | 1 | 1.4 | 1.01 | 0.99 | hIgG4s (human IgG4 Fc isotype control; Fc is IgG4s) (antibody, V domains shown) VH: EVQLVESGGGLVQPGGSLRLSCAASGFTLSTYAMTWVRQAPGKGLEWVSAINYRAANTWYADSVKGRFTISRDNSKNTLYLQMNSLRDEDTAVYYCAQDRVIIKDYYVMDVWGQGTTVTVSS VL: not shown | 
5 |  |  |  |  |  |  |  |  | 1.1 | 1 | hIgG1 (anti-FelD1 human IgG1 Fc isotype control) (antibody, V domains shown) VH: QVQLQESGPGLVKPSETLSLTCTVSGGSISSYYWSWIRQPPGKGLEWIGYIYYSGRTNYNPSLKSRVTISVDTSKNQFSLKLSSVTAADTAIYYCARHRVTRTADSFDYWGQGTLVTVSS VL: DIQMTQSPSSLSASVGDRVTITCQASQDINNYLNWYQQKTGKAPKFLIYDASNLETGVSSRFSGSGSGTDFTFTISSLQPEDVGTYYCHQYGDLPYTFGQGTKLEIKR | 
6 |  |  |  |  |  |  | 1.1 | 1.1 |  |  | mIgG1 (murine IgG1 Fc isotype control; control antibody with murine IgG1 sequence) (antibody, V domains shown) VH: QVQLQESGPGLVAPSQSLSITCTVSGFSLTTFGVHWVRQSPGKGLEWLGVIWADETTNYNSALMSRLSISKDNSKSQVFLKMNGLRTDDTAIYSCARSKVSYYFDYWGRGTTLTVSS VL: NIMMTQSPSSLPVSPGEKVTMNCKSSRSVLYSLNQKNYLAWYQQKPGQSPKLLIYWASTRESGVPDRFTGSGSGTDFSLTISSVQAEDLAVYYCHQYLSSWTFGGGTKLEIKR | 
7 | 0.127 | 0.361 | 3.02 | 2.66 |  |  |  |  |  |  | IL10M6 (hIL10-2XG4S-Fc; Fc is IgG4s) (Fc fusion) SPGQGTQSENSCTHFPGNLPNMLRDLRDAFSRVKTFFQMKDQLDNLLLKESLLEDFKGYLGCQALSEMIQFYLEEVMPQAENQDPDIKAHVNSLGENLKTLRLRLRRCHRFLPCENKSKAVEQVKNAFNKLQEKGIYKAMSEFDIFINYIEAYMTMKIRNGGGGSGGGGSESKYGPPCPPCPAPPVAGPSVFLFPPKPKDTLMISRTPEVTCVVVDVSQEDPEVQFNWYVDGVEVHNAKTKPREEQFNSTYRVVSVLTVLHQDWLNGKEYKCKVSNKGLPSSIEKTISKAKGQPREPQVYTLPPSQEEMTKNQVSLTCLVKGFYPSDIAVEWESNGQPENNYKTTPPVLDSDGSFFLYSRLTVDKSRWQEGNVFSCSVMHEALHNHYTQKSLSLSLGK | 
8 |  |  |  |  | 1.19e-10 | 1.18e-10 | 3.7 | 4.8 |  |  | IL10M1 (Fc-3XG4S-hIL10; Fc is IgG4s) (Fc fusion) ESKYGPPCPPCPAPPVAGPSVFLFPPKPKDTLMISRTPEVTCVVVDVSQEDPEVQFNWYVDGVEVHNAKTKPREEQFNSTYRVVSVLTVLHQDWLNGKEYKCKVSNKGLPSSIEKTISKAKGQPREPQVYTLPPSQEEMTKNQVSLTCLVKGFYPSDIAVEWESNGQPENNYKTTPPVLDSDGSFFLYSRLTVDKSRWQEGNVFSCSVMHEALHNHYTQKSLSLSLGKGGGGSGGGGSGGGGSSPGQGTQSENSCTHFPGNLPNMLRDLRDAFSRVKTFFQMKDQLDNLLLKESLLEDFKGYLGCQALSEMIQFYLEEVMPQAENQDPDIKAHVNSLGENLKTLRLRLRRCHRFLPCENKSKAVEQVKNAFNKLQEKGIYKAMSEFDIFINYIEAYMTMKIRN | EC50 of luciferase activity, Ramos/Stat3-Luc reporter cells (IL10M1 L1) [3]: 0.117 nM; EC50 of luciferase activity, Ramos/Stat3-Luc reporter cells (IL10M1 L2) [3]: 0.148 nM; EC50 of luciferase activity, TF-1/Stat3-Luc reporter cells (IL10M1 L1) [3]: 0.139 nM; EC50 of luciferase activity, TF-1/Stat3-Luc reporter cells (IL10M1 L2) [3]: 0.134 nM; Fold Induction of luciferase activity, Ramos/Stat3-Luc reporter cells (IL10M1 L1) [3]: 4.11 fold; Fold Induction of luciferase activity, Ramos/Stat3-Luc reporter cells (IL10M1 L2) [3]: 3.66 fold; Fold Induction of luciferase activity, TF-1/Stat3-Luc reporter cells (IL10M1 L1) [3]: 4.12 fold; Fold Induction of luciferase activity, TF-1/Stat3-Luc reporter cells (IL10M1 L2) [3]: 3.4 fold
9 |  |  |  |  | 5.07e-11 | 7.05e-11 | 4.5 | 5.9 | 5.16 | 4.02 | Recombinant human IL10 (obtained from Peprotech, Princeton NJ, Product #200-10) (ligand) SPGQGTQSENSCTHFPGNLPNMLRDLRDAFSRVKTFFQMKDQLDNLLLKESLLEDFKGYLGCQALSEMIQFYLEEVMPQAENQDPDIKAHVNSLGENLKTLRLRLRRCHRFLPCENKSKAVEQVKNAFNKLQEKGIYKAMSEFDIFINYIEAYMTMKIRN | EC50 of luciferase activity, Ramos/Stat3-Luc reporter cells [3]: 0.0482 nM; EC50 of luciferase activity, TF-1/Stat3-Luc reporter cells [3]: 0.063 nM
10 | 0.172 | 0.319 | 2.88 | 2.36 |  |  |  |  |  |  | IL10M7 (hIL10-1XG4S-Fc; Fc is IgG4s) (Fc fusion) SPGQGTQSENSCTHFPGNLPNMLRDLRDAFSRVKTFFQMKDQLDNLLLKESLLEDFKGYLGCQALSEMIQFYLEEVMPQAENQDPDIKAHVNSLGENLKTLRLRLRRCHRFLPCENKSKAVEQVKNAFNKLQEKGIYKAMSEFDIFINYIEAYMTMKIRNGGGGSESKYGPPCPPCPAPPVAGPSVFLFPPKPKDTLMISRTPEVTCVVVDVSQEDPEVQFNWYVDGVEVHNAKTKPREEQFNSTYRVVSVLTVLHQDWLNGKEYKCKVSNKGLPSSIEKTISKAKGQPREPQVYTLPPSQEEMTKNQVSLTCLVKGFYPSDIAVEWESNGQPENNYKTTPPVLDSDGSFFLYSRLTVDKSRWQEGNVFSCSVMHEALHNHYTQKSLSLSLGK | 
